Article PMC6203816 (Nature Communications, 2018)

B1: CAP228-3D IgG1 (antibody, V domains shown)
VH: EVQLVQSGAEVKKPGESLKISCKGFGYSFSTYWIAWVRQMPGKGLEWMGMIYPGDSDTKYSPSLQGQVTISGDKSISTAYLQWSSLKASDTAMYYCARLLNNYDSSGFLYWYLDLWGRGTLVTVSS
VL: NFMLTQPHSVSESPGKTVTISCTRSSGSIASDYVQWYQQRPGSSPTTVIYEDNQRPSGVPDRFSGSIDSSSNSASLTISGLKTEDEADYYCQSYDMTNHNWVFGGGTKLTVL
B2: 830 A (antibody, V domains shown)
VH: QVQLQQWGPGLLKPSETLSLTCAVYGGSFGRYYWSWIRQSSGEGLEWLGQIDHTGSTTYNPSLKGRVTISIDSSTNQFSLKVTSVIAADTAVYYCARAPSGYPGVSLYQYYGLDVWGQGTTVTVSS
VL: DTVMTQSPATLSVSPGERVTLSCRASQIINTNLAWYQKRPGQAPRLLIYAASARATGIPARFSGSGSGTEFTLTISGLQSEDSAVYYCQQYKHWPPYTFGRGTKLEIR
notes: also called V2i mAb 830 A

Molecular target: C1080 envelope on concentrated pseudovirus particles (HIV-1 strain C1080 (clone C1080.c3 …, UniProt I6NF57, strain))
Test: ELISA
Conditions: one partner purified

Binder | binding result
B1 | binds
B2 | binds
